From PMC8626477 come the findings set out here.

Assay [1] deals with E2 of the Chaetomium thermophilum pyruvate dehydrogenase complex (PDHc) (Chaetomium thermophilum). Kind of assay: cryo-EM structure; native C. thermophilum cell extract, SEC fraction 6, vitrified at 0.3 mg/mL total protein; 10249 particles; reconstructions with icosahedral (3.85 Å), C2 (6.21 Å) and C1 (7.62 Å) symmetry.
Assay [2] deals with E3BP of the Chaetomium thermophilum pyruvate dehydrogenase complex (PDHc) (Chaetomium thermophilum). The description is as above.

For orientation: stoichiometry N means the number of molecules, sites or subunits per partner or assembly.

Substance “E2 of the Chaetomium thermophilum pyruvate dehydrogenase complex (PDHc) (enzyme)” showed a stoichiometry N in assay [1] of 60.
Consider “E3BP of the Chaetomium thermophilum pyruvate dehydrogenase complex (PDHc) (natural protein)”, for which the stoichiometry N came out at 12 in assay [1] and 3 in assay [2].
